Values joined by “and” are separate entries in the source; they are usually repeats but may differ in a detail not shown here. Identical values can stand only once. Bridges are numbered along the chain shown (N, C = ends). Where no end group is shown, it is not given here.

Assay [1] concerns the target IGF Type I receptor (IGF-1R) (UniProt P08069). Kind of assay: receptor affinity (method not described), relative to wild-type insulin.
The target of assay [2] is T1, A isoform of the insulin receptor (UniProt P06213-2 28-1370, limits assumed).
T1 construct: Isoform A is the short isoform lacking exon 11; also called IR-A
Description: receptor affinity (method not described), relative to wild-type human insulin.

Assay [3] addresses B isoform of the insulin receptor (UniProt P06213). The description is as above.
In assay [4] the target is T1, A isoform of the insulin receptor. Description: receptor-binding affinity assay (method not described; data not shown), relative to wild-type human insulin.
Substrate in assay [5]: B isoform of the insulin receptor (UniProt P06213)
Kind of assay: receptor-binding affinity assay (method not described), relative to wild-type human insulin.

“59-mer SCI with C domain EEGSRRSR ('this SCI' of paragraph 30) (ligand)” displayed a fold reduction in affinity relative to wild-type insulin in assay [1] of 10 fold. In addition, the affinity relative to wild-type human insulin (percent) in assay [2] and in assay [3] was 10 to 150% each time.

B1: 4SS 81-04 (57mer single-chain insulin analogue containing a fourth disulfide bridge between residues B4 and A10) (ligand)
chain: FVNCHLCGSHLVEALYLVCGERGFFYTDPTEEGPRRGIVEQCCHSCCSLEQLENYCN
modifications: disulfide 19-56, 4-46, 42-47, 7-43
notes: Single-chain insulin analogue, 57 residues, C domain EEGPRR; also called analogue 4SS 81-04
B1: the “affinity relative to human insulin (percent)” value in assay [4] was 120 percent. In assay [5], the fold reduction in affinity relative to wild-type human insulin is 5 fold and 10 fold.
